Source: patent US20240108738A1, “BICYCLIC PEPTIDE LIGANDS SPECIFIC FOR NK CELLS” (Bicycle Tx Limited, priority 2021, published 2024)
Numbered stars: 1 amine (or outer) side, 2 acyl side, 3 side chain; on linkers, the order of the positions; unused ones are H or OH. Bridge positions count the residues as written; N and C are the ends. Ends that are not written are not given here. * marks the point of attachment. TBMT = 2,4,6-tris(bromomethyl)-s-triazine, C(c1nc(C[*:2])nc(C[*:3])n1)[*:1]; Pent4ynoyl = C#CCCC(=O)*

These binders were tested against biotinylated human FcγRIII (CD16a), variant not stated (human) (UniProt P08637) (assay: SPR Method A).
Sequence of biotinylated human FcγRIII (CD16a), variant not stated (human) (P08637 17-208, change not shown): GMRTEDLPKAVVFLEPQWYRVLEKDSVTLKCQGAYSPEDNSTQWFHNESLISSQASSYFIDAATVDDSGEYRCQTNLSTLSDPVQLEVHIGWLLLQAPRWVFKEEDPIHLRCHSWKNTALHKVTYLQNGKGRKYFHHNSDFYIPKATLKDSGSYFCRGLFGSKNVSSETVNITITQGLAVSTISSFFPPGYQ

Row | Binder | Kd [nM]
1 | ACVGLEELGPCSDLCAK(Pent4ynoyl)-NH2 (linker 2-11-15 via TBMT (inferred)) [BCY13886] | 2200
2 | ACRWSVEDPCGAWCAK(Pent4ynoyl)-NH2 (linker 2-10-14 via TBMT (inferred)) [BCY13883] | 1800

What follows are binders tested against Human NKp46 Fc tag (Acro Biosystems, NC1-H5257) (human), O76036 (assay: SPR Method 1 and/or 2).
Sequence of Human NKp46 Fc tag (Acro Biosystems, NC1-H5257) (human), O76036 (O76036 22-255 limits assumed): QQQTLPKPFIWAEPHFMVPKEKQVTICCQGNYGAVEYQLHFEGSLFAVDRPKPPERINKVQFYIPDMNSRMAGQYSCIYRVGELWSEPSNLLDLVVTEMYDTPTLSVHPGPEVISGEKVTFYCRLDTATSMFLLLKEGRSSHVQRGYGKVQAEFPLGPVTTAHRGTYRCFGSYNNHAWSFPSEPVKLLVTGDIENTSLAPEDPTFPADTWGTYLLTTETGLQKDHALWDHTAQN

Row | Binder | Kd [nM]
3 | ACDLATHNCQWGICA (modifications not checked) [BCY18265] | 1480
4 | ACDLTTHNCAWGICA (modifications not checked) [BCY18269] | 1640
5 | ACDLTTHNCQWGACA (modifications not checked) [BCY18272] | 3190
6 | ACDLQTHNCQWGICA (modifications not checked) [BCY18277] | 1520
7 | ACDLTTHNCVWGICA (modifications not checked) [BCY18285] | 3760
8 | CNLQAPCMLTGKVC (modifications not checked) [BCY18295] | 6410
9 | ACNLQAACMLTGKVCA (modifications not checked) [BCY18299] | 1800
10 | ACNLQAPCMATGKVCA (modifications not checked) [BCY18301] | 4030
11 | ACNLQAPCMLAGKVCA (modifications not checked) [BCY18302] | 5380
12 | ACNLQAPCMLTGAVCA (modifications not checked) [BCY18304] | 1530
13 | ACNLQAPCMETGKVCA (modifications not checked) [BCY18316] | 1510
14 | ACNLQAPCMYTGKVCA (modifications not checked) [BCY18318] | 1920
15 | CNLQAPCMLTGKVCA (modifications not checked) [BCY19694] | 2510
16 | KCNLQAPCMLTGKVCA (modifications not checked) [BCY19695] | 2380
17 | ACNLQAPCMVTGKVCA (modifications not checked) [BCY19702] | 2680
18 | ACNLQAPCMHTGKVCA (modifications not checked) [BCY19711] | 2750
19 | ACNLQAPCLHTGKVCA (modifications not checked) [BCY19712] | 3140
20 | ACNLQQACMQTGKVCA (modifications not checked) [BCY19713] | 1830
21 | CDLTTHNCQWGICA (modifications not checked) [BCY19718] | 1110
22 | ACNLQQACLHTGKVCA (modifications not checked) [BCY14454] | 2760
23 | ACLLHDHCPNTHPKMCA (modifications not checked) [BCY14457] | 2270
24 | ACDLTTHNCIWGVCA (modifications not checked) [BCY14458] | 1260
25 | ACNLQNPCMKFPCA (modifications not checked) [BCY15102] | 1090
26 | ACLLHDHCPNTHPKLCA (modifications not checked) [BCY15103] | 1660
27 | ACLLHEHCPNTHPKMCA (modifications not checked) [BCY15104] | 2880
28 | ACLLHDHCPNSHPEICA (modifications not checked) [BCY15105] | 3730
29 | ACLLHDHCPNTHPIICA (modifications not checked) [BCY15106] | 2670
